Experiment: yeast display, Sf9 membrane polyspecificity reagent, FACS + sequencing; frameworks hold sequencing errors
How it was run: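 Genes from sorted yeast were amplified by colony PCR, read by MiSeq 2 × 250 sequencing and filtered on CDR length. These cells carried a synthetic nanobody library in Saccharomyces cerevisiae BJ5465 and were sorted by FACS into low and high (top ~1%) gates on anti-HA and streptavidin fluorescence. Polyreactivity is labelled according to the gate of origin.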
In the case of “QVQLVESGGGLVQAGGSLRLSCAASGLIFYPYAMGWSRQAPGKEREFVAAITWSGGSTRYADSVKGRFTISRDNAKNTVYLQMNSLNPEDTAVYYCAAAYKWTYYWGQGTQVTVSS”, the “polyreactivity (PSR sort gate)” value is reported as “high polyreactivity”.
With “QVQLVESGGGLVQAGGSLRLSCAASGLIFYPYAMGWYRQAPGKERELVAGISSSGDSTYYADSVKGRFTISRDNAKNTVYLQMNSLKPEDTAVYYCNADGWYFEYWGQGTQVTVSS” the “polyreactivity (PSR sort gate)” value was “low polyreactivity”.
In the case of “QVQLVESGGGLVQAGGSLRLSCAASGLIFYRYAMGWYRQAPGTERELVAVITRSGCNTNYADSVKGRFTISRDNAKNTVYLQMNSLKPEDTEVYYCDTRGIWKKVPYYYWGQGTQVTVSS”, the “polyreactivity (PSR sort gate)” value is reported as “low polyreactivity”.
In the case of “QVQLVESGGGLVQAGGSLRLSCAASGLIFYRYTMGWYRQAPGKEREFVAAITAGGSTYYADSVKGRFTISRDNAKNTVYVQMNSLKPEDTAVYYCATLVRLLQYTYIKYDYWGQGTQVTVSS”, the “polyreactivity (PSR sort gate)” value is reported as “high polyreactivity”.
In the case of “QVQLVESGGGLVQAGGSLRLSCAASGLIFYRYTMGWYRQAPGKERELVAAISWRGTRTYYADSVKGRFTISRDNAKNTVYLQMNSLKPEDTAVYYCTAGYVRRYSPSSSWRYDYWGQGTQVTVSS”, the “polyreactivity (PSR sort gate)” value is reported as “high polyreactivity”.
With “QVQLVESGGGLVQAGGSLRLSCAASGLIFYSYTMGWYRQAPGKERELVASITWTGGSTYYADSVKGRFTISRDNAKNTVYLQMNSLKPEDTAVYYCAVRVPSSIHIQLDYWGQGTQVTVSS” the “polyreactivity (PSR sort gate)” value was “high polyreactivity”.
In the case of “QVQLVESGGGLVQAGGSLRLSCAASGLIFYTYAMGWYRQAPGNERELVADINRSDGSTYYADSVKGRFTISRDNAKNTVYLQMNSLKPEDTAVYYCAVVGPYYSRFGGRYYYWGQGTQVTVSS”, the “polyreactivity (PSR sort gate)” value is reported as “low polyreactivity”.
For “QVQLVESGGGLVQAGGSLRLSCAASGLIFYVYAMGWYRQAPGKERELVADITYSGGRTYYADSVKGRFTISRDKAKNTVYLQMNSLKPEDTAVYYCAADSVKYGIDPGLPNSDDYWGQGTQVTVSS”, the “polyreactivity (PSR sort gate)” value was “low polyreactivity”.
For “QVQLVESGGGLVQAGGSLRLSCAASGLIFYYYAMGGYRQAPGTQRELVACITGGDSTNYADSVKGRFTISRDNAKNTVYLQMNSLKPEDTAVYYCAAEFYGSSFGYRTYDYYYWGQGTEVTVSS”, the “polyreactivity (PSR sort gate)” value was “low polyreactivity”.
With “QVQLVESGGGLVQAGGSLRLSCAASGLIFYYYAMGWYRQAPGKEREFVAAISRRGGSTYYADSVKGRFTISRDNAKNTVYLHMNSLKPEDTAVYYCAAKSGSFVHGGYQTPVYGSDYWGQGTQVTVSS” the “polyreactivity (PSR sort gate)” value was “high polyreactivity”.
With “QVQLVESGGGLVQAGGSLRLSCAASGLIFYYYAMGWYRQAPGKERELVAAITSDDRTYYADSVKGRFTISRDNAKNTFYLQMNSLKPEDTAVYYCAARYHGYLPQYRKYGYGYWGQGTQVTVSS” the “polyreactivity (PSR sort gate)” value was “high polyreactivity”.
With “QVQLVESGGGLVQAGGSLRLSCAASGLIFYYYAMGWYRQAPGKEREVVAAISSNGGSTYYADSVKGRFTISRDNAKNTVYLQMNSLKPEDTAVYYCAAGYAYYYWTPYYYWGQGTQVTVSS” the “polyreactivity (PSR sort gate)” value was “high polyreactivity”.
In the case of “QVQLVESGGGLVQAGGSLRLSCAASGLIFYYYAMGWYRQAPWKEREFVAAISRSGGIKRYADSVKGRFTISRDNAKNTVYLQMNSLKPEDTAVYYCAARYYYRHAQSFPWSNRWSSYYYWGQGTQVTVSS”, the “polyreactivity (PSR sort gate)” value is reported as “high polyreactivity”.
In the case of “QVQLVESGGGLVQAGGSLRLSCAASGLIIPYYAMGWSRQAPGKERELVAGITSDGSTNYADSVMGRFTISRDNAKIIVYLQMYSLKPVDTAVYYCAKEQGLYSVSPYDYWGQGTQVSVSS”, the “polyreactivity (PSR sort gate)” value is reported as “low polyreactivity”.
For “QVQLVESGGGLVQAGGSLRLSCAASGLIIRRYAMGWYRQAPGKERELVAAISGSGSSTYYADSVKGRFTISRDNAKNTVYLQMNSLKPEDTAVYDCAAVVLFRRGQVIRVESDYWGQGTQVTVSS”, the “polyreactivity (PSR sort gate)” value was “high polyreactivity”.
For “QVQLVESGGGLVQAGGSLRLSCAASGLIIRWYAMGWYRQAPGKERELVAAITRAGSTNYADSVKWRFTISRDNAKNTVYLQMNSLKPEDTAVYYCAAVAVELASEYDYWGQGTQVTVSS”, the “polyreactivity (PSR sort gate)” value was “low polyreactivity”.
With “QVQLVESGGGLVQAGGSLRLSCAASGLIIWLYTMGWYRQAPGKERELVAAIDWSGGSTYYADSVKGRFTISRDNAKNTVYLQMNSLKPEDTAVYYCAADPEPSYRFDYWGQGTQVTVSS” the “polyreactivity (PSR sort gate)” value was “low polyreactivity”.
With “QVQLVESGGGLVQAGGSLRLSCAASGLIIYSNAMGWYRQAPRKERELVAAINYSGGRTYYADSVKGRFTISRDNAKNTVYLQMNSLKPEDTAVYYCAARLYGAQRHGGYWGQGTQVTVSS” the “polyreactivity (PSR sort gate)” value was “high polyreactivity”.
For “QVQLVESGGGLVQAGGSLRLSCAASGLIIYYYAMGWYRQAPGKERELVAAITWTAGSTSYADSVKGRFTISRDNAKNTVYLQMNSLKPEDTAVYYCAADYRHDTFSNQYDYWGQGTQVTVSS”, the “polyreactivity (PSR sort gate)” value was “low polyreactivity”.
For “QVQLVESGGGLVQAGGSLRLSCAASGLILHKYAMGWYRQAPGKERELVASINSGANTNYADSVKGRFTISRDNAKNTVYLQMNSLKPEDTAVYYCNASPFTVRYYKYEYWGQGTQVTVSS”, the “polyreactivity (PSR sort gate)” value was “low polyreactivity”.
In the case of “QVQLVESGGGLVQAGGSLRLSCAASGLILSRNVMGWYRQAPGKERELVAAINWSSGSTYYADSVKGRFTISRDNGKNTVSLQMNSLKPEDTAVYYCAATVFYDAEYDYWGQGSQVTVSS”, the “polyreactivity (PSR sort gate)” value is reported as “high polyreactivity”.
For “QVQLVESGGGLVQAGGSLRLSCAASGLILSSNAMGWYRQAPGKERELVAAITWDGDRTYADSVKGRFTISRDNAKNTVYLQMNSLKPEDTAVYYCAADKQYSWYDWSYDYWGQGTQVTVSS”, the “polyreactivity (PSR sort gate)” value was “low polyreactivity”.
With “QVQLVESGGGLVQAGGSLRLSCAASGLILVPNTMGWYRQAPGKERELVAAISYSGGGTYYADSVKGRFTISRDNANNTVYLQMNSLKPEDTAVYYCAAYVKRESAPYGYWGQGTLVTVSS” the “polyreactivity (PSR sort gate)” value was “low polyreactivity”.
With “QVQLVESGGGLVQAGGSLRLSCAASGLILVPNTMGWYRQAPGKESELVAAISDSGGGTYYADSVKGRFTISRDNAKNTVYLQMISLKPEDTAVYYCAAYGKRESAPYGYWGQGTQVTVSS” the “polyreactivity (PSR sort gate)” value was “low polyreactivity”.
In the case of “QVQLVESGGGLVQAGGSLRLSCAASGLILVYYAMGWYRQAPGKERELVAAITPGGSTKYAESVKGRFTISRDNAKNTVYLQMNSLKPEDTAVYYCNALSGPYWYYVYQSHQDDYWGQGSQVTVSS”, the “polyreactivity (PSR sort gate)” value is reported as “low polyreactivity”.
For “QVQLVESGGGLVQAGGSLRLSCAASGLILYTYAMGWYRQAPGKERELVAALNSGGRTYSADSVKGRFTISRDNAKNTVYLQMNSLKPEDTAVYYCAADYGSRVRGFNYWGQGTQVTVSS”, the “polyreactivity (PSR sort gate)” value was “low polyreactivity”.
With “QVQLVESGGGLVQAGGSLRLSCAASGLINYYYAMGWYRQAPGKERELVAAISGSSGASTYYADSVKGRFTISRDNAKNTVYLQMNSLKPEDTAVYYCATPVASVTGYDYWGQGTQVTVSS” the “polyreactivity (PSR sort gate)” value was “low polyreactivity”.
With “QVQLVESGGGLVQAGGSLRLSCAASGLISTPNAMGWSRQAPGKERELVASISSRGGSTYYADSVKGRFTISRDNAKNTVYLQMNSLKPEDTAVYYCAADAYRDFYYEYYYWGQGSQVTVSS” the “polyreactivity (PSR sort gate)” value was “low polyreactivity”.
For “QVQLVESGGGLVQAGGSLRLSCAASGLISYHYAMGWYRQAPGKERELVASISYTGGSTFYADSVKGRFTISRDNAKNTVYFQMNSLKPEDTAVYYCAAYRIWRPSYYYWGQGTQVTVSS”, the “polyreactivity (PSR sort gate)” value was “high polyreactivity”.
With “QVQLVESGGGLVQAGGSLRLSCAASGLIYFYAMGWYRQAPGKERELVAAISSSGGRTYYADSVKGRFTISRDNAKNTVYLQMNSLKPEDTAVYYCAVVSSHYIGPGRNGYDYWGQGTQVTVSS” the “polyreactivity (PSR sort gate)” value was “high polyreactivity”.
In the case of “QVQLVESGGGLVQAGGSLRLSCAASGLMFRHYAMGWYRPAPGKERELVAAIDYSGGSTYYADSVKGRFTISRDNAKNTVYLQMNCLKPEDTAVYYCNRYHRLRVVPSRFVKYDYWGQGTQVTVSS”, the “polyreactivity (PSR sort gate)” value is reported as “low polyreactivity”.

Reference: the nanobody polyreactivity screen of Harvey et al. (2022)
